Experimental data taken from patent US20260234242A1 (HAINAN SIMCERE ZAIMING PHARMACEUTICAL, published 2026).

T1: human CDH6 on tumor cells (OVCAR3 cells, PA-1 cells) (human, UniProt P55285 54-790)
T1 sequence: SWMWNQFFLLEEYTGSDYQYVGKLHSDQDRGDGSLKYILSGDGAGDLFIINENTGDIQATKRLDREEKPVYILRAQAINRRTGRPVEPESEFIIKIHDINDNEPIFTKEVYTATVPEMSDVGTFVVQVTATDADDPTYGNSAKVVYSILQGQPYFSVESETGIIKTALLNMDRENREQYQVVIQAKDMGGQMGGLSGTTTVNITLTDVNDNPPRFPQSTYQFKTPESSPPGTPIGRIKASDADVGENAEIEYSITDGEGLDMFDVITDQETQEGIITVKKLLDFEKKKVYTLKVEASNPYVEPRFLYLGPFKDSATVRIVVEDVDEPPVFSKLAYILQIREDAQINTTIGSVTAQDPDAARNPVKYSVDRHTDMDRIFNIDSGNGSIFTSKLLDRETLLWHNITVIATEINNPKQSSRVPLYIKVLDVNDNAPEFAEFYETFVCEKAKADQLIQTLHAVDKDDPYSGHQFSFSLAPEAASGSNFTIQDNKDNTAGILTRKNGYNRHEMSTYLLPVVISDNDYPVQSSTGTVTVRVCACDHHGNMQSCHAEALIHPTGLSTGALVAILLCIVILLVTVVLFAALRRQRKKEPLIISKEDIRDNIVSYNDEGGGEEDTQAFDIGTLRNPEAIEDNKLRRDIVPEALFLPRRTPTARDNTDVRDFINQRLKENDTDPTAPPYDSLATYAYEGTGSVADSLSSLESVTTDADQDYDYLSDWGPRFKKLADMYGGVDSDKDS

T2: his-tagged human CDH6 extracellular region protein (hCDH6 ECD-his) (human, UniProt P55285 19-615)
T2 construct: also called Human CDH6-his; hCDH6-his; not shown: his tag
T2 sequence: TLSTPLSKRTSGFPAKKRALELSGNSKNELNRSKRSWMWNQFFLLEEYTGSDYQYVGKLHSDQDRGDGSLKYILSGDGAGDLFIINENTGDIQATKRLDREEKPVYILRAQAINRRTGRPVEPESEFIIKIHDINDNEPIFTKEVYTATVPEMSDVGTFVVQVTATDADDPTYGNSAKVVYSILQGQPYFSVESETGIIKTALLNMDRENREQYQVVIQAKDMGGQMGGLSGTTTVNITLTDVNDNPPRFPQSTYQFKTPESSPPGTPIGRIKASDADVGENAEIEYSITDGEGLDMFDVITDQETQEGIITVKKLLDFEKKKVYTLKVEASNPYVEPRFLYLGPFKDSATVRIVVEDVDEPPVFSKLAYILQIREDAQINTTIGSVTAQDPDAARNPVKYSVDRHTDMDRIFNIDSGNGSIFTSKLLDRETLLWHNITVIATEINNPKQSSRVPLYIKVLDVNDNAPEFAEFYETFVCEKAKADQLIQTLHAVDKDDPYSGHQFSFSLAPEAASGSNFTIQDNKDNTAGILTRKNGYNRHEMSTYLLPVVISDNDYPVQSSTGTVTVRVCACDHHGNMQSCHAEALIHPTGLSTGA


Experiments:
[1] = molecular target: T1, human CDH6 on tumor cells (OVCAR3 …); experiment: FACS, OVCAR3 cells
Method: OVCAR3 cells with high expression of CDH6 and PA-1 cells with moderate expression of CDH6 were used to detect the binding activity of the antibodies to the cells. […] The cells were washed once with PBS, counted, resuspended to 2×10⁶ cells/mL in an FACS buffer (PBS+2% FBS), and then added to a 96-well plate at 50 μL/well. The chimeric antibodies were diluted with FACS buffer (PBS+2% FBS) and added to the 96-well plate at 50 μL/well, and the plate was incubated at 4° C. for 1 h. […] The dilution was added to the 96-well plate at 50 μL/well, and the plate was incubated at 4° C. for 1 h. After the plates were centrifuged and washed 2 times with PBS, the cells were resuspended in an FACS buffer. The mean fluorescence intensity (MFI) was measured using FACS Canton II (BD). Analysis was performed by the GraphPad Prism software, data were fitted, and EC50 values were calculated. The chimeric antibodies tested had strong binding to both OVCAR3 cells and PA-1 cells.
According to the above sequences, heavy chain (HC) and light chain (LC) plasmids were constructed (the nucleic acid sequences encoding the VH and VL of the antibodies were recombined into an expression vector carrying a signal peptide (SEQ ID NO: 132, […]) and a heavy chain constant region/light chain constant region sequence to obtain recombinant plasmids expressing VH—CH1-Fc/VL-CL). According to the expression and purification methods in Example 2, the hCDH6-6 humanized antibodies were obtained, and the binding activity of the humanized antibodies was detected by ELISA and FACS (see 2.2 and 2.3 for the method).

[2] = molecular target: T2, his-tagged human CDH6 extracellular …; experiment: ELISA, coated antigen
Method: Human CDH6 protein (hCDH6 ECD-his, conventionally synthesized), monkey CDH6 protein (cynoCDH6 ECD-his, conventionally synthesized; the cynoCDH6 ECD sequence was derived from Uniprot #A0A2K5TW62 (19-615)), and murine CDH6 protein (mCDH6 ECD-his, conventionally synthesized; the mCDH6 ECD sequence was derived from Uniprot #P97326 (19-615)) were diluted with PBS to a final concentration of 1 μg/mL, and added to a 96-well ELISA plate at 100 μL/well. The plate was incubated at 4° C. overnight. The next day, the plate was washed 3 times with a plate washing solution (PBS+0.01% (v/v) Tween 20), and a blocking buffer (PBS+0.01% (v/v) Tween 20+2% (w/w) BSA) was added for blocking at room temperature for 2 h. The blocking buffer was discarded, and the plate was washed 3 times. The chimeric antibodies were diluted with 1% BSA+PBS (purchased from Cytiva, Cat. No. SH30264.01) and added to the 96-well plate at 50 μL/well. After incubation at 37° C. for 2 h, the plate was washed 3 times with a plate washing solution. […] The plate was incubated at 37° C. for 1 h and then washed 5 times with a plate washing solution. A TMB substrate (purchased from Seracare, Cat. No. 5120-0077) was added at 50 μL/well and incubated at room temperature for 10 min, then a stop solution (1.0 N HCl) was added at 50 μL/well. OD450 nm values were read using a microplate reader (Biotek). Analysis was performed by the GraphPad Prism software, data were fitted, and EC50 values were calculated. The chimeric antibodies tested all had strong binding to the human CDH6 protein, the monkey CDH6 protein, and the murine CDH6 protein.
According to the above sequences, heavy chain (HC) and light chain (LC) plasmids were constructed (the nucleic acid sequences encoding the VH and VL of the antibodies were recombined into an expression vector carrying a signal peptide (SEQ ID NO: 132, […]) and a heavy chain constant region/light chain constant region sequence to obtain recombinant plasmids expressing VH—CH1-Fc/VL-CL).

EC50 [1] | Max MFI [1] | EC50 [2] | Max OD450 [2] | Binder
0.68 nM | 14100 MFI | 0.028 nM | 2.02 OD450 | CHI-CDH6-6 (antibody, human IgG1, kappa, V domains shown, also called CHI-hCDH6-6; chimeric antibody of murine CDH6-6) VH: EVQLQQSGPELVKPGDSVKMSCKASGYTFTDYYMAWVRQSHRKSLEWIGYIFPNSGGTDYSQKFKGKATLTVDKSSSTVYMELHSLTSEDSAVYYCARELGADYGDYYAMDHWGQGTSVSVSS VL: DIQMTQSPASLSASVGETVTITCRASENIDSYLAWYQQKQGKSPQLLVYSATLLADGVPSRFSGSGSGTQYSLKINSLKSEDVARYYCQHYYRTPPTFGSGTKLEIKR
0.56 nM | 14300 MFI | 0.026 nM | 1.97 OD450 | hCDH6-6-H2L2 (antibody, V domains shown, Humanized) VH: EVQLVQSGAEVKKPGASVKVSCKASGYTFTDYYMAWVRQAPGQGLEWMGYIFPNSGGTDYSQKFKGRVTLTVDKSTSTVYMELSSLRSEDTAVYYCARELGADYGDYYAMDHWGQGTTVTVSS VL: DIQMTQSPSSLSASVGDRVTITCRASENIDSYLAWYQQKPGKSPKLLVYSATLLADGVPSRFSGSGSGTDYTLTISSLQPEDFATYYCQHYYRTPPTFGQGTKLEIK
